Results taken from PMC11303396 (Nature Communications, 2024).

Molecular target: the molecule itself
Experiment: cryo-EM structure

B1: mouse ClC-3b I607T mutant (natural protein, UniProt P51791 1-818, looked up)
chain: MESEQLFHRGYYRNSYNSITSASSDEELLDGAGAIMDFQTSEDDNLLDGDTAAGTHYTMTNGGSINSSTHLLDLLDEPIPGVGTYDDFHTIDWVREKCKDRERHRRINSKKKESAWEMTKSLYDAWSGWLVVTLTGLASGALAGLIDIAADWMTDLKEGICLSALWYNHEQCCWGSNETTFEERDKCPQWKTWAELIIGQAEGPGSYIMNYIMYIFWALSFAFLAVSLVKVFAPYACGSGIPEIKTILSGFIIRGYLGKWTLMIKTITLVLAVASGLSLGKEGPLVHVACCCGNIFSYLFPKYSTNEAKKREVLSAASAAGVSVAFGAPIGGVLFSLEEVSYYFPLKTLWRSFFAALVAAFVLRSINPFGNSRLVLFYVEYHTPWYLFELFPFILLGVFGGLWGAFFIRANIAWCRRRKSTKFGKYPVLEVIIVAAITAVIAFPNPYTRLNTSELIKELFTDCGPLESSSLCDYRNDMNASKIVDDIPDRPAGVGVYSAIWQLCLALIFKIIMTVFTFGIKVPSGLFIPSMAIGAIAGRIVGIAVEQLAYYHHDWFIFKEWCEVGADCITPGLYAMVGAAACLGGVTRMTVSLVVIVFELTGGLEYTVPLMAAVMTSKWVGDAFGREGIYEAHIRLNGYPFLDAKEEFTHTTLAADVMRPRRSDPPLAVLTQDNMTVDDIENMINETSYNGFPVIMSKESQRLVGFALRRDLTIAIESARKKQEGIVGSSRVCFAQHTPSLPAESPRPLKLRSILDMSPFTVTDHTPMEIVVDIFRKLGLRQCLVTHNGIVLGIITKKDILRHMAQTANQDPASIMFN
B1: binds.
